Results from IntAct's records for PubMed 27458164.

B1: Src-like-adapter 2 (Mus musculus), Q8R4L0 (parent)
chain: MGSLSSRGKTSSPSPSSSGPDQEPVSMQPERHKVTAVALGSFPAGEQARLSLRLGEPLTIISEDGDWWTVQSEVSGREYHMPSVYVAKVAHGWLYEGLSREKAEELLLLPGNPGGAFLIRESQTRRGCYSLSVRLSRPASWDRIRHYRIQRLDNGWLYISPRLTFPSLHALVEHYSELADGICCPLREPCVLQKLGPLPGKDTPPPVTVPTSSLNWKKLDRSLLFLEAPASGEASLLSEGLRESLSSYISLAEDPLDDA

Variants of: B1
Settings: with flt3_human FLT3, P36888
flt3_human FLT3, P36888, sequence (P36888 whole entry): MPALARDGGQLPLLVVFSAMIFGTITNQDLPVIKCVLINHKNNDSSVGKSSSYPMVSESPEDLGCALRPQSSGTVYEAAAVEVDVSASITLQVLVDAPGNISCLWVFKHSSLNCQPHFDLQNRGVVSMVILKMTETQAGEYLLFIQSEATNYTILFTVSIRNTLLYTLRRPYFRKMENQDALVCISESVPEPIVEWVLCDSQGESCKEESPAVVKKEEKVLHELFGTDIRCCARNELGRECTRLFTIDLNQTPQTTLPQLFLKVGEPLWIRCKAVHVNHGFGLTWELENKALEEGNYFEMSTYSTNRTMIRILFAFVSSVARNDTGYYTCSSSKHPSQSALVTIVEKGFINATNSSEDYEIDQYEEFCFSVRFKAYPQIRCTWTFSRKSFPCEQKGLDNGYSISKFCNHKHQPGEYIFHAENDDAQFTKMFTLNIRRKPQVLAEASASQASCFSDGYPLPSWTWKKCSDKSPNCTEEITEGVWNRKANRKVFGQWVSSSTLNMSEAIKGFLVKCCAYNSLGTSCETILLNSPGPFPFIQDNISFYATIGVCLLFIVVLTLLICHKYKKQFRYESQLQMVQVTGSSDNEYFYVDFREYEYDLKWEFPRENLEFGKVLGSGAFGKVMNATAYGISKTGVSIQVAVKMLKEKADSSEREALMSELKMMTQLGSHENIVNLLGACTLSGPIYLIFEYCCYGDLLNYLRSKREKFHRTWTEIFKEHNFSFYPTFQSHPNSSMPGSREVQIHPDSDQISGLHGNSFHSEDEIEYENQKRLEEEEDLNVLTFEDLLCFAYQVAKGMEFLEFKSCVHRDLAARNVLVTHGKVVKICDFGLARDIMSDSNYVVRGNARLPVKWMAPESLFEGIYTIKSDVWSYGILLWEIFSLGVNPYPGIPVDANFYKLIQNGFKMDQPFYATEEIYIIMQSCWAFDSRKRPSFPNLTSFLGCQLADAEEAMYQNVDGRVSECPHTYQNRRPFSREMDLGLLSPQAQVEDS
In the case of R120E, the “effect of a mutation on the interaction” value is reported as “disrupting interaction”.
